Data on 25 sequences can be found in the supplement of paper PMC10201428.

± gives the standard deviation of the averaged measurements.

The test system of this series is VchCAST RNA-guided transposition machinery (E. coli BL21(DE3) host, lacZ target). As to the kind of experiment: relative integration efficiency (T-RL orientation) vs wild-type transposon end (log2 (normalized fold change)); transposon end mutated: right end (5 bp flank + 75 bp right end); higher = more efficient transposition. In a few lines:
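Barcoded pools of 1549 left-end or 1849 right-end transposon variants were cloned into a pUC57 mini-transposon donor. Each pool was co-transformed with a T7-driven effector plasmid (CRISPR array, tniQ-cas8-cas7-cas6, tnsA-tnsB-tnsC) into E. coli BL21(DE3) and plated with 0.1 mM IPTG at 37°C for 18 h. Input plasmids and genomic integration junctions were PCR-amplified and Illumina-sequenced, with two biological output replicates and four wild-type barcodes as reference. Relative integration efficiency is output/input barcode abundance fold change, normalised to wild-type barcodes and log-transformed.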
On to “ACATTTGTTGATACAACCATAAAATGATAATTACACCCATAAATTGATAATTATCACACCCATAAATTGATATTGCCTCTTCATGGTCTAAACTTCAGTCCTGGGCATCAATTTTCAGCACCGACAC”, for which the “relative integration efficiency (log2)” value was determined as 0.135 ± 0.16.
For “ACATTTGTTGATACAACCATAACATGATAATTACACCCATAACTTGATAATTATCACACCCATAACTTGATATTGCCTCTGATCATAGTCAGACCAACATTGCTACGACCCGTATTCGCACCGACAC”, the “relative integration efficiency (log2)” value is -0.3313 ± 0.00055.
With “ACATTTGTTGATACACCCATAAATTGATAATTACACCCATAAATTGATATTGCTCACAACCATAAAATGATAATTACTCTGATCATAGTCAGACCAACATTGCTACGACCCGTATTCGCACCGACAC” the figure was -0.918 ± 0.33.
With “ACATTTGTTGATACAACCATTAAATGATAATTCCACCCAAAAATTGATAATTATCACACCCAATTTAACTATAACGCTCTGATCATAGTCAGACCAACATTGCTACGACCCGTATTCGCACCGACAC” the figure was -0.813 ± 0.13; with “ACATTTGTTGATACAACCATCAAATGGTAATTCCACCCCTAAATTGATAATTATCACACCCAATTTAACTATAACGCTCTGATCATAGTCAGACCAACATTGCTACGACCCGTATTCGCACCGACAC”, -5.34 ± 0.16; with “ACATTTGTTGATATAATTATCATTTTATGGTTGCAACCATAAAATGATAATTATCACAACCATAAAATGATAATTACTCTGATCATAGTCAGACCAACATTGCTACGACCCGTATTCGCACCGACAC”, -3.54 ± 0.15.
With “ACATTTGTGGATCCAACCATAAAATGATAATTACACCCATAAATTGATAATTATCACACCCAATTTAACTATAACGCTCTGATCATAGTCAGACCAACATTGCTACGACCCGTATTCGCACCGACAC” the figure was -0.789 ± 0.2; with “ACATTTGTTGATACAACCATAAAATGATCATTACACCCATCAATTGATAATTATCACACCCCATTTAACTATAACGCTCTGATCATAGTCAGACCAACATTGCTACGACCCGTATTCGCACCGACAC”, -2.76 ± 0.2.
On to “ACATTTGTTGATACAACCATAAAATGATCATTACACCCATCAATTGATAATTATCACACCCAATTTAACTATAACGCTCTGATCATAGTCAGACCAACATTGCTACGACCCGTATTCGCACCGACAC”, for which the “relative integration efficiency (log2)” value was -2.98 ± 0.5.
With “ACATTTGTTGATAGAACCATAAAATGATAATTAGACCCATAAATTGATAATTATCAGACCCATAAATTGATATTGCCTCTGATCATAGTCAGACCAACATTGCTACGACCCGTATTCGCACCGACAC” the figure was -1.64 ± 0.2.
The same measure for “ACATTTGTTGATACAACCATAAAATGATAATTACACCCTAAAATTGATAATTATCACACCCATAAATTGATATTGCCTCTGATCATAGTCAGACCAACATTGCTACGACCCGTATTCGCACCGACAC”: -0.736 ± 0.05; for “ACATTTGTTGATACAACCATAAAATGATAATTAACAAACGCCCGGTCGCCGGCTCACACCCATAAATTGATATTGCCTCTGATCATAGTCAGACCAACATTGCTACGACCCGTATTCGCACCGACAC”: -3.28 ± 0.31; for “ACATTTGTTGATACAACCATAAAATGATAATTACACCCATAAATTGATAATTATCACACCCATAAATTGATATTGCCTCTGATCATTTACTTTTGGTTACATATTTAGTCAGACCAAGCACCGACAC”: 0.0213 ± 0.19.
The same measure for “ACATTTGTTGATACAACCATAAAATGATCCGGCCACCCATAAATTGATCCGGCTCACACCCATAAATTGATCGGTACTCTGATCATAGTCAGACCAACATTGCTACGACCCGTATTCGCACCGACAC”: -2.73 ± 0.41; for “ACATTTGTTGATACAACCATATATTGATATCTCCAACCATAAAGTGATATTTATCACAACCATAAAATGATAATTACTCTGATCATAGTCAGACCAACATTGCTACGACCCGTATTCGCACCGACAC”: -0.716 ± 0.2; for “ACATTAGTTCATACAACCATAAAATGATAATTACACCCATAAATGGATCATTATCACACCCAATTTAACTATAACGCTCTGATCATAGTCAGACCAACATTGCTACGACCCGTATTCGCACCGACAC”: -7.359 ± 0.025.
Consider “ACATTTGTTGATACAACCATAAGTTGATATTTTCAACCATAAAGTGATATTTATCACAACCATATATTGATATCTCCTCTGATCATAGTCAGACCAACATTGCTACGACCCGTATTCGCACCGACAC”, for which the “relative integration efficiency (log2)” value was -0.136 ± 0.014.
On to “ACATTTGTTGATACAACCATAAAATGATAATTACACCCATAAATTGATAATTATCACAGGGTTAAATTGATATTGCCTCTGATCATAGTCAGACCAACATTGCTACGACCCGTATTCGCACCGACAC”, for which the “relative integration efficiency (log2)” value is -0.425 ± 0.14.
With “ACATTTGTTGATACAACCATAAAATGATAATTACACCCATAAATTGATAATTAGACAACCCATAAATTGATATTGCCTCTGATCATAGTCAGACCAACATTGCTACGACCCGTATTCGCACCGACAC” the figure was -0.476 ± 0.18.
The same measure for “ACATTAGTTCATACAACCATAAAATGATAATTACACCCATAAATTCATCATTATCACACCCAATTTAACTATAACGCTCTGATCATAGTCAGACCAACATTGCTACGACCCGTATTCGCACCGACAC”: -7.69 ± 0.13; for “ACATTTGTTGATACAACCATAAAATGATAATTACACCCATAAATTGATAATTATCACACCCATAAATTGATATTGCCTCTCGCGAGAGGCCGGCAGCCGTCTGGCGTCGGGTGGCGGGCACCGACAC”: 0.713 ± 0.16; for “ACATTTGTTGATACAACCATAAAATGATAATTACACCCATAAATTGATAATGCGACACAAACGCCCGGTCGCGGTAAGAGGATCATAGTCAGACCAACATTGCTACGACCCGTATTCGCACCGACAC”: -0.485 ± 0.11.
On to “ACATTTGTTGATACAACCATAAAAGGATAATTACCCCCATAAATTGATAATTATCACACCCAATTTAACTATAACGCTCTGATCATAGTCAGACCAACATTGCTACGACCCGTATTCGCACCGACAC”, for which the “relative integration efficiency (log2)” value is -1.55 ± 0.26.
The same measure for “ACATTTCTCGATACAACCATAAAATGATAATTACACCCATAAATGGATCATTATCACACCCAATTTAACTATAACGCTCTGATCATAGTCAGACCAACATTGCTACGACCCGTATTCGCACCGACAC”: -2.3 ± 0.27; for “ACATTTCATGATACAACCATAAAATGATAATTACACCCATAAATTGATAATTATCACACCCATAAATTGATATTGCCTCTGATCATAGTCAGACCAACATTGCTACGACCCGTATTCGCACCGACAC”: -4.85 ± 0.79.
